Assay results: patent US20250327097A1, “ORGANISMS PRODUCING LESS CROTONIC ACID” (Global Bioenergies, priority 2021, published 2025)
Where a chain is given by its changes, count along the chain named. Numbers in names are those of the source.

B1: I283T-P284D-N287P-S322T-N388M-C430N-L432F-L434W-S436N-dG462-A463T-S465V (protein)
chain: MFLKSLREQINLLKRQGDLRIINRPVDSYLEAAAIIRRSTETKAPVPLMTNIKGYPGCSIVGGLAALSSNPEYPLSRVAMSLGLSTTASAQSIVQYLIDGLKKTPYLPVEIDSNSAPCKQNILRGEDASLAHFPIPQVHQHDGNRYVNTWGVFIVESPDGQWCNWSIQRVQYLNDRQMIALVFPSQHISDIWEEWVKIGKPMPYALVQGCEPIVPYIAGLPLLERNVNEAEYIGALYGKGIEVVKCETHDLRVPASSEVVIEGYFAITREGVEGPFGEFAGYTDNEPSLQPILSITAISWQDDPIWPVVAEGKPVDEYHTCTGIGDAAAIQNVLLTANLPVSFVWVPLYSACHLMIVSINRHWRQTHPDLTSEQLTKKVGDVIHQTRMSIKLPKIVVLDDDVDPADTESLLWALATRIHPERKRYFYESNIFPWLNCYSEEERHNRKGKRVIIDALLPENHGTIVSFDYAYPDDIKQRVLMHWETDFSHD
B2: I283T-P284D-N287P-S322T-N388M-E421V-R422F-C430N-L432F-L434W-S436N-H461T-dG462 (protein)
chain: B1 chain with E421V, R422F, H461T, T463A, V465S
B3: I283T-N285P-N287T-Q290E-S322T-N388M-K394R-C430A-L432F-L434W-S436N-dA463 (protein)
chain: B1 chain with D284P, N285P, P287T, Q290E, K394R, N430A, T463A, V465S
B4: I283T-P284D-N287P-S322T-N388M-E421V-C430N-L432F-L434W-S436N-H461V-dG462-A463T (protein)
chain: B1 chain with E421V, H461V, V465S
B5: I283T-N285P-N287T-Q290E-S322T-N388M-K394R-C430A-L432F-L434W-S436N-dH461 (protein)
chain: B1 chain with D284P, N285P, P287T, Q290E, K394R, N430A, T463A, V465S
B6: I283T-P284D-N287P-S322T-N388M-R422F-C430N-L432F-L434W-S436N-H461V-dG462 (protein)
chain: B1 chain with R422F, H461V, T463A, V465S
B7: I283T-P284D-N285I-N287T-i287aS-S322T-N388M-K394R-C430A-L432F-L434W-S436N-G462P-A463P (protein)
chain: B1 chain with N285I, P287T, K394R, N430A, G462P, T463P, V465S
B8: I283T-P284D-N287P-S322T-N388M-E421V-C430N-L432F-L434W-S436N-H461T-dG462-A463T (protein)
chain: B1 chain with E421V, H461T, V465S
B9: I283T-P284D-N285M-N287T-S322T-N388M-K394R-C430A-L432F-L434W-S436N-C437M-G462P-A463P (protein)
chain: B1 chain with N285M, P287T, K394R, N430A, C437M, G462P, T463P, V465S
B10: I283T-P284D-i284aP-N287P-S322T-N388M-C430N-L432F-L434W-S436N-dG462 (protein)
chain: B1 chain with T463A, V465S
B11: I283T-P284D-N287P-S322T-N388M-E421V-C430N-L432F-L434W-S436N-dG462-A463T (protein)
chain: B1 chain with E421V, V465S
B12: I283T-N285P-N287T-Q290E-S322T-N388M-K394R-C430A-L432F-L434W-S436N-dG462 (protein)
chain: B1 chain with D284P, N285P, P287T, Q290E, K394R, N430A, T463A, V465S
B13: I283T-P284D-N287P-S322T-N388M-E421V-R422F-C430N-L432F-L434W-S436N-H461V-dG462-A463T (protein)
chain: B1 chain with E421V, R422F, H461V, V465S
B14: I283T-P284D-N287P-S322T-N388M-E421V-C430N-L432F-L434W-S436N-H461V-dG462 (protein)
chain: B1 chain with E421V, H461V, T463A, V465S
B15: I283T-P284D-N287P-S322T-N388M-R422F-C430N-L432F-L434W-S436N-H461V-dG462-A463T (protein)
chain: B1 chain with R422F, H461V, V465S
B16: I283T-P284D-N287P-S322T-N388M-E421V-R422F-C430N-L432F-L434W-S436N-dG462-A463T (protein)
chain: B1 chain with E421V, R422F, V465S
B17: N287I-N388M-K394R-C430N-L432F-L434W-S436N (protein)
chain: B1 chain with T283I, D284P, P287I, T322S, K394R, T463A, V465S
B18: I283T-P284D-N287P-S322T-N388M-R422F-C430N-L432F-L434W-S436N-H461T-dG462-A463T (protein)
chain: B1 chain with R422F, H461T, V465S
B19: I283T-P284D-N287P-S322T-N388M-R422F-C430N-L432F-L434W-S436N-dG462-A463T (protein)
chain: B1 chain with R422F, V465S
B20: I283T-P284D-N287P-S322T-N388M-E421V-R422F-C430N-L432F-L434W-S436N-dG462 (protein)
chain: B1 chain with E421V, R422F, T463A, V465S
B21: N285M-N388M-K394R-C430N-L432F-L434W-S436N (protein)
chain: B1 chain with T283I, D284P, N285M, P287N, T322S, K394R, T463A, V465S
B22: I283T-P284D-N287P-S322T-N388M-E421V-R422F-C430N-L432F-L434W-S436N-H461V-dG462 (protein)
chain: B1 chain with E421V, R422F, H461V, T463A, V465S
B23: I283T-P284D-N287P-S322T-N388M-C430N-L432F-L434W-S436N-H461Y-dG462-A463T-S465V (protein)
chain: B1 chain with H461Y
B24: N388M-K394R-C430N-L432F-L434W-S436N-H444V (protein)
chain: B1 chain with T283I, D284P, P287N, T322S, K394R, H444V, T463A, V465S
B25: I283T-P284D-N287P-S322T-N388M-C430N-L432F-L434W-S436N-H461A-dG462-A463T-S465V (protein)
chain: B1 chain with H461A
B26: I283T-P284D-N287P-S322T-N388M-C430N-L432F-L434W-S436N-H461T-dG462-A463T (protein)
chain: B1 chain with H461T, V465S
B27: I283T-P284D-N285M-N287T-L289H-S322T-N388M-K394R-C430A-L432F-L434W-S436N-G462P-A463P (protein)
chain: B1 chain with N285M, P287T, L289H, K394R, N430A, G462P, T463P, V465S
B28: I283T-P284D-N287P-S322T-N388M-E421V-R422F-C430N-L432F-L434W-S436N-H461T-dG462-A463T (protein)
chain: B1 chain with E421V, R422F, H461T, V465S
B29: I283T-P284D-N287P-S322T-N388M-R422F-C430N-L432F-L434W-S436N-H461T-dG462 (protein)
chain: B1 chain with R422F, H461T, T463A, V465S
B30: I283T-P284D-N287P-S322T-N388M-R422F-C430N-L432F-L434W-S436N-dG462 (protein)
chain: B1 chain with R422F, T463A, V465S
B31: I283T-P284D-N285M-N287T-S322T-N388M-K394R-C430A-L432F-L434W-S436N-G462P-A463P-I464P (protein)
chain: B1 chain with N285M, P287T, K394R, N430A, G462P, T463P, I464P, V465S
B32: I283T-P284D-N287P-S322T-N388M-E421V-C430N-L432F-L434W-S436N-H461T-dG462 (protein)
chain: B1 chain with E421V, H461T, T463A, V465S
B33: I283T-P284D-N287P-S322T-N388M-E421V-C430N-L432F-L434W-S436N-dG462 (protein)
chain: B1 chain with E421V, T463A, V465S
B34: I283T-P284D-N287P-S322T-N388M-C430N-L432F-L434W-S436N-H461V-dG462-A463T-S465V (protein)
chain: B1 chain with H461V

tested on: 3-methylcrotonic acid; assay type: biochemical, Yersinia frederiksenii; design: key: “+” representing a low increase in activity; “++++” representing a high increase in activity

Row | Molecule | Activity relative to WT
1 | B1 | ++++
2 | B2 | ++++
3 | B3 | ++++
4 | B4 | ++++
5 | B5 | ++++
6 | B6 | ++++
7 | B7 | ++++
8 | B8 | ++++
9 | B9 | ++++
10 | B10 | ++++
11 | B11 | ++++
12 | B12 | ++++
13 | B13 | ++++
14 | B14 | ++++
15 | B15 | ++++
16 | B16 | ++++
17 | B17 | +

Row | Molecule | Activity relative to WT
18 | B18 | ++++
19 | B19 | ++++
20 | B20 | ++++
21 | B21 | +
22 | B22 | ++++
23 | B23 | ++++
24 | B24 | +
25 | B25 | ++++
26 | B26 | ++++
27 | B27 | ++++
28 | B28 | ++++
29 | B29 | ++++
30 | B30 | ++++
31 | B31 | ++++
32 | B32 | ++++
33 | B33 | ++++
34 | B34 | ++++
